Tests used:
Assay in all cases: cell-based or functional assay
[1] = target: C-terminal HA-tagged feline APOBEC3 (feline)
feline APOBEC3 (feline) = target: feline APOBEC3 (feline)
[2] = target: different primate APOBEC3 proteins (e.g. from chimpanzee, African green monkey, human)

Chain of C-terminal HA-tagged feline APOBEC3 (feline) (Q4VDN5 whole entry): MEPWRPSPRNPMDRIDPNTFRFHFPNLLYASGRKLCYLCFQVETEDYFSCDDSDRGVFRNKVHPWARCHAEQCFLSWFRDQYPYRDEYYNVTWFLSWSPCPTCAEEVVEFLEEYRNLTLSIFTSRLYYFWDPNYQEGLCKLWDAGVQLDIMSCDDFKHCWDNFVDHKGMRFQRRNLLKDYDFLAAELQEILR

| Molecule | G→A exchanges per 100 nucleotides in FFV genomes with fe3 coexpressed (G→A exchanges per 100 nucleotides) [1] | reduction of FFV titer (FeFAB reporter cells) on cotransfection of pfe3 (feline APOBEC3 (feline)) [fold] | Bet-mediated rescue of marker gene transduction in the presence of different APOBEC3 molecules [2] [fold] |
| --- | --- | --- | --- |
| FFV Bet truncated after amino acid 116 (mutant pFeFV-BBtr) | 1.05 | – | – |
| feline foamy virus (FFV) Bet protein (from UniProt Q8NFT8) | 0.05 | < 10 | – |
| human foamy virus (HFV) Bet protein, P89873 1-482 (protein) MDSYEKEESVASTSGIQDLQTLSELVGPENAGEGELTIAEEPEENPRRPRRYTKREVKCVSYHAYKEIEDKHPQHIKLQDWIPTPEEMIAQKVQNQDLGTILSFDVTCLKSITSLGRNDPGDDPSIMSHVLPVVTPWPMSQDHYAPTLFGILDRYYQGYLKSPATYQTWKFTCQVDPSGKRFMETQFWVPPLGQVNIQFYKNYQILTCCQAVDPFANIFHGTDEEMFDIDSGPDVWCSPSLCFKVIYEGAMGQKQEQKTWLCRLGHGHRMGACDYRKVDLYAMRQGKENPYGDRGDAALQYAYQVKRGCKAGCLASPVLNYKALQFHRTIMADFTNPRIGEGHLAHGYQAAMEAYGPQRGSNEERVWWNVTRNQGKQGGEYYREGGEEPHYPNTPAPHRRTWDERHKVLKLSSFATPSDIQRWTTKALPYGWKVVTESGNDYTSRRKIRTLTEMTQDEIRKRWESGYCDPFIDSGSDSDGPF | – | – | < 100 |

From US20110294219A1
